# Test results from patent US20240182909, “Checkpoint Aptamers as Therapeutics for Cancer Treatment” (Ayass Bioscience LLC, published 2024).
# B1: ctla4_R3_25 (ssDNA)
# DNA: GACTTCGCGGAGGTAAACTGCACGGGGGTGCCGCGAAGTC
# modifications: deoxyuridine (dU) in place of every T
# B2: ctla4_R2_81 (ssDNA)
# DNA: ACTTACAACTGCGCACGCGGGACCTCCGAGAGTTGTAAGT
# modifications: deoxyuridine (dU) in place of every T
# B3: ctla4_R3_20 (ssDNA)
# DNA: GACCTGCCGGCGGAGCTGCGTCCCGCTGCACCGGCAGGTC
# modifications: deoxyuridine (dU) in place of every T
# B4: ctla4_R2_13 (ssDNA)
# DNA: ACACTTTTCCCCCACCTGATCCTCAGTTCCGGAAAAGTGT
# modifications: deoxyuridine (dU) in place of every T
# B5: ctla4_R3_56 (ssDNA)
# DNA: TTGTTGCAGGCGACGTGCGTGGGCGCACGGCCTGCAACAA
# modifications: deoxyuridine (dU) in place of every T
# Columns and labels:
# Conditions in all cases: label: biotin
# PD-1 [1] = biological target: T1, PD-1 (UniProt Q15116 Q15116:25-170); test: competition; PD-1 as soluble competitor; called R2-25 in figure legend
# Experimental: (§1) FIGS. 3A, 3B, and 3C show the assessment of competitive specificity of CTLA4 aptamers, R2-13, R2-25, R2-63, R2-81, R3-20, and R3-56 to CTLA4 protein in presence of CTLA4, NKG2A, and PD-1 proteins. ELISA-based competition assay for the specificity of the binding of CTLA4 aptamers, R2-13, R2-25, R2-63, R2-81, R3-20, and R3-56. CTLA4 protein (5.0 ug/mL) was immobilized on a MaxiSorp plate. Biotinylated CTLA4 aptamers on 5.0 uM concentration were added in the presence of different concentrations of CTLA4, PD-1, or NKG2A proteins, respectively. The bound aptamer was detected using Streptavidin-HRP and assessed by ELISA. The absorbance of each well was monitored at 450 nm on an automatic microplate reader. The percent inhibition was calculated using the formula, Percent inhibition=[1−(Ainhibitor/Auninhibitor)]×100.
# NKG2A [2] = biological target: T2, NKG2A (UniProt P26715 P26715:94-233); test: competition; NKG2A as soluble competitor for aptamer binding to immobilised CTLA4
# Experimental: as §1
# [3] = biological target: T3, CTLA4 (cytotoxic T-lymphocyte associated protein 4) (UniProt P16410 P16410:36-161); test: ELONA; called R2-25 in figure legend; 5.0 uM biotinylated aptamer on immobilised CTLA4, competed with soluble protein
# Experimental: as §1
# [4] = biological target: T3, CTLA4 (cytotoxic T-lymphocyte …); test: ELONA; 5.0 uM biotinylated aptamer on immobilised CTLA4 (5.0 ug/mL), competed with soluble protein
# Experimental: as §1
# PD-1 [5] = biological target: T1, PD-1; test: competition; PD-1 as soluble competitor
# Experimental: as §1
# [6] = biological target: Bovine serum albumin (BSA) (Bos taurus, UniProt P02769 P02769:25-607); test: ELONA; BSA-coated plate
# PD-1 [7] = biological target: T1, PD-1; test: competition; PD-1 as soluble competitor for aptamer binding to immobilised CTLA4
# Experimental: as §1
# [8] = biological target: T3, CTLA4 (cytotoxic T-lymphocyte …); test: ELONA; direct and competitive ELISA; 100-fold excess unlabelled aptamer as competitor
# NKG2A [9] = biological target: T2, NKG2A; test: as above
# Experimental: FIGS. 2A and 2B show aptamer, R2-13, specific binding to CTLA4 and NKG2A is determined by Direct and Competitive ELISA assay. ELISA-based competition assay for the binding of the CTLA4 aptamer, R2-13, to CTLA4 protein and to NKG2A protein. CTLA4 protein and NKG2A protein were immobilized on a MaxiSorp plate and biotinylated R2-13 on different concentrations were added in the absence and presence of 100-fold excess of non-biotinylated respective R2-13. The bound aptamer was detected using Streptavidin-HRP and assessed by ELISA. CTLA4 protein was immobilized on a MaxiSorp plate and biotinylated R2-13 on different concentrations were added in the absence and presence of 100-fold excess of non-biotinylated respective R2-13. The bound aptamer was assessed by ELISA.
# T1 sequence (Q15116 25-170, one chain of several): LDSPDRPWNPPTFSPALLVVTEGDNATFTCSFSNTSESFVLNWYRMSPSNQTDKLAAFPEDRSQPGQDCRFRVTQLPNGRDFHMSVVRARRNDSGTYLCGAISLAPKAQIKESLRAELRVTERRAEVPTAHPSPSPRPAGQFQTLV
# T2 sequence (P26715 94-233, one chain of several): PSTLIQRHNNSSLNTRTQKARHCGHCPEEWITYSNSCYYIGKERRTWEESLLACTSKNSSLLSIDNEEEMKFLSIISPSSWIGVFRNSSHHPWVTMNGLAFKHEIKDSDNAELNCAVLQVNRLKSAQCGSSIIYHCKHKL
# T3 sequence (P16410 36-161, one chain of several): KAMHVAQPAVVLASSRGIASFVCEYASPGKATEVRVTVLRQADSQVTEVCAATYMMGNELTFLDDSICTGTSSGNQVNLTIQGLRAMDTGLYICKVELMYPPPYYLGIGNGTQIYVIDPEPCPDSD
# Sequence of Bovine serum albumin (BSA) (P02769 25-607, one chain of several): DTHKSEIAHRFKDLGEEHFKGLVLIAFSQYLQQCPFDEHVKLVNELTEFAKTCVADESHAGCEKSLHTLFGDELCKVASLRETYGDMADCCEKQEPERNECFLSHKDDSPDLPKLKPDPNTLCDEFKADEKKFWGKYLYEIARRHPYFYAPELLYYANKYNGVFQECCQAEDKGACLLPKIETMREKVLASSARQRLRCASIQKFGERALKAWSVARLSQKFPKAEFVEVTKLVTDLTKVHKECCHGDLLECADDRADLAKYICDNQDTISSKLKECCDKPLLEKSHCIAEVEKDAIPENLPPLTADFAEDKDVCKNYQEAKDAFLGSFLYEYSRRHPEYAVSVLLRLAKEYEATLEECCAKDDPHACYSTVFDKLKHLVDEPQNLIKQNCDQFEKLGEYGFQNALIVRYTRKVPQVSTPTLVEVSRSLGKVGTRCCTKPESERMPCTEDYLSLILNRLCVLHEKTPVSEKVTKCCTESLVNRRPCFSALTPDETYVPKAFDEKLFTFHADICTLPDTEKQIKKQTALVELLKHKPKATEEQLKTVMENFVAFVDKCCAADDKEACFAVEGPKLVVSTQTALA
binder,measurement,setting,value
B1,binding result,PD-1 [1],no binding
same,binding result,NKG2A [2],binds
same,binding result,[3],binds
B2,binding result,[4],binds
same,binding result,NKG2A [2],binds
same,binding result,PD-1 [5],no binding
B3,binding result,[4],binds
same,binding result,NKG2A [2],binds
same,binding result,PD-1 [5],no binding
B4,binding result,[6],no binding
same,binding result,PD-1 [7],no binding
same,binding result,[8],binds
same,binding result,NKG2A [9],binds
B5,binding result,[4],binds
same,binding result,NKG2A [2],binds
same,binding result,PD-1 [5],no binding
